{"source": "patent US20080020978A1", "about": "(Amgen, published 2008)", "binders": {"B1": {"name": "SEQ ID NO 36 (peptide)", "peptide": "Ac-WVTHRLAGLLSQSGGVVRCNFVPTDVGPFAF-NH2", "modifications": "not fully specified (residue 19); printed as Ac-WVTHRLAGLLSQSGGVVRCNFVPTDVGPFAF-NH2"}, "B2": {"name": "SEQ ID NO 42 (peptide)", "peptide": "Ac-WVTHRLAGLLS[dR]SGGVVRCNFVPTDVGPFAF-NH2", "modifications": "not fully specified (residue 19); printed as Ac-WVTHRLAGLLSrSGGVVRCNFVPTDVGPFAF-NH2"}, "B3": {"name": "SEQ ID NO 34 (peptide)", "peptide": "Ac-WVTHRLAGLLSASGGVVRCNFVPTDVGPFAF-NH2", "modifications": "not fully specified (residue 19); printed as Ac-WVTHRLAGLLSASGGVVRCNFVPTDVGPFAF-NH2"}, "B4": {"name": "SEQ ID NO 38 (peptide)", "peptide": "Ac-WVTHRLAGLLSQSGGVVRKNFVPTDVGPFAF-NH2", "modifications": "not fully specified (residue 19); printed as Ac-WVTHRLAGLLSQSGGVVRKNFVPTDVGPFAF-NH2"}, "B5": {"name": "SEQ ID NO 41 (peptide)", "peptide": "Ac-WVTHRLAGLLS[dR]SGGVVRCNFVPTDVGPFAF-NH2", "SMILES": "CC(=O)N[C@@H](Cc1c[nH]c2ccccc12)C(=O)N[C@H](C(=O)N[C@H](C(=O)N[C@@H](Cc1c[nH]cn1)C(=O)N[C@@H](CCCNC(=N)N)C(=O)N[C@@H](CC(C)C)C(=O)N[C@@H](C)C(=O)NCC(=O)N[C@@H](CC(C)C)C(=O)N[C@@H](CC(C)C)C(=O)N[C@@H](CO)C(=O)N[C@H](CCCNC(=N)N)C(=O)N[C@@H](CO)C(=O)NCC(=O)NCC(=O)N[C@H](C(=O)N[C@H](C(=O)N[C@@H](CCCNC(=N)N)C(=O)N[C@@H](CS)C(=O)N[C@@H](CC(N)=O)C(=O)N[C@@H](Cc1ccccc1)C(=O)N[C@H](C(=O)N1CCC[C@H]1C(=O)N[C@H](C(=O)N[C@@H](CC(=O)O)C(=O)N[C@H](C(=O)NCC(=O)N1CCC[C@H]1C(=O)N[C@@H](Cc1ccccc1)C(=O)N[C@@H](C)C(=O)N[C@@H](Cc1ccccc1)C(N)=O)C(C)C)[C@@H](C)O)C(C)C)C(C)C)C(C)C)[C@@H](C)O)C(C)C"}, "B6": {"name": "SEQ ID NO 40 (peptide)", "peptide": "Ac-WVTHQLAGLLSQSGGVVRKNFVPTDVGPFAF-NH2", "modifications": "not fully specified (residue 19); printed as Ac-WVTHQLAGLLSQSGGVVRKNFVPTDVGPFAF-NH2"}, "B7": {"name": "SEQ ID NO 14 (peptide)", "peptide": "Ac-WVTHRLAGLLSRSGGVVCNNFVPTDVGPFAF-NH2", "modifications": "not fully specified (residue 18); printed as Ac-WVTHRLAGLLSRSGGVVCNNFVPTDVGPFAF-NH2"}, "B8": {"name": "SEQ ID NO 19 (peptide)", "peptide": "Ac-WVTHRLAGLLSRSGGVKRNNFVPTDVGPFAF-NH2", "modifications": "not fully specified (residue 17); printed as Ac-WVTHRLAGLLSRSGGVKRNNFVPTDVGPFAF-NH2"}, "B9": {"name": "SEQ ID NO 15 (peptide)", "peptide": "Ac-WVTHRLAGLLSRSGGVVRKNFVPTDVGPFAF-NH2", "modifications": "not fully specified (residue 19); printed as Ac-WVTHRLAGLLSRSGGVVRKNFVPTDVGPFAF-NH2"}, "B10": {"name": "SEQ ID NO 13 (peptide)", "peptide": "Ac-WVTHRLAGLLSRSGGVVKNNFVPTDVGPFAF-NH2", "modifications": "not fully specified (residue 18); printed as Ac-WVTHRLAGLLSRSGGVVKNNFVPTDVGPFAF-NH2"}, "B11": {"name": "SEQ ID NO 12 (peptide)", "peptide": "Ac-WVTHRLAGLLSRSGGVVKNNFVPTDVGPFAF-NH2", "modifications": "not fully specified (residue 18); printed as Ac-WVTHRLAGLLSRSGGVVKNNFVPTDVGPFAF-NH2"}, "B12": {"name": "SEQ ID NO 16 (peptide)", "peptide": "Ac-WVTHRLAGLLSRSGGVVRKNFVPTDVGPFAF-NH2", "modifications": "not fully specified (residue 19); printed as Ac-WVTHRLAGLLSRSGGVVRKNFVPTDVGPFAF-NH2"}, "B13": {"name": "SEQ ID NO 17 (peptide)", "peptide": "Ac-WVTHRLAGLLSRSGGVVRCNFVPTDVGPFAF-NH2", "modifications": "not fully specified (residue 19); printed as Ac-WVTHRLAGLLSRSGGVVRCNFVPTDVGPFAF-NH2"}}, "note": "Square brackets hold non-standard residues; d marks the D form."}
{"target": "T1, CGRP1 receptor (CRLR/RAMP1 complex) of human neuroblastoma SK-N-MC cells (human, UniProt Q16602 23-461; O60894 27-148)", "T1 sequence (Q16602 23-461, chain 1 of 2)": "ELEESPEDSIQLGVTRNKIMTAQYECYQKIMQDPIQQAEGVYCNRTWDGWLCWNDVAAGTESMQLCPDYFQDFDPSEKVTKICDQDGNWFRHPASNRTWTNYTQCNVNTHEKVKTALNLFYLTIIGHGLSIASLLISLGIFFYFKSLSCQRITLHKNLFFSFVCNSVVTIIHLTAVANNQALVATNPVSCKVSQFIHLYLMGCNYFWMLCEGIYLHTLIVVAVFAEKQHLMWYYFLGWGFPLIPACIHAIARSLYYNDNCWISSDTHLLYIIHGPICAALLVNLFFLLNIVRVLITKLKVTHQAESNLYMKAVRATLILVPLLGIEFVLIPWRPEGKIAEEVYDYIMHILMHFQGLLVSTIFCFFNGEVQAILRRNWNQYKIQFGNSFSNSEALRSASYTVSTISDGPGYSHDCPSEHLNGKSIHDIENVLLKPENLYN", "T1 sequence (O60894 27-148, chain 2 of 2)": "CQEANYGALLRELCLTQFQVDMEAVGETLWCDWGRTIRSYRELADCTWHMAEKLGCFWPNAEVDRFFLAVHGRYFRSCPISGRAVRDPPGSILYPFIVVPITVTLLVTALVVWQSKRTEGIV", "assay": "cell-based or functional assay", "units": {"IC50": "nM"}}
{"binder": "B1", "IC50": 4.69}
{"binder": "B2", "IC50": 19.4}
{"binder": "Ac-WVTHRLAGLLSASGGVVRCNFVPTDVGPFAF-NH2", "note": "[SEQ ID NO 33]", "IC50": 2.75}
{"binder": "Ac-WVTHRLAGLLSQSGGVVRCNFVPTDVGPFAF-NH2", "note": "[SEQ ID NO 35]", "IC50": 0.37}
{"binder": "Ac-WVTHRLAGLLSQSGGVVRKNFVPTDVGPFAF-NH2", "note": "[SEQ ID NO 37]", "IC50": 0.56}
{"binder": "B3", "IC50": 6.2}
{"binder": "B4", "IC50": 0.11}
{"binder": "Ac-WVTHQLAGLLSQSGGVVRKNFVPTDVGPFAF-NH2", "note": "[SEQ ID NO 39]", "IC50": 0.53}
{"binder": "B5", "IC50": 0.59}
{"binder": "WVTHXLAGLLSXSGGVVRKNFVPTDVGPFAF (Ac-WVTH(hR)LAGLLS(hR)SGGVVRKNFVPTDVGPFAF-NH2)", "note": "[SEQ ID NO 25]", "IC50": 2.1}
{"binder": "WVTHXLAGLLSRSGGVVRKNFVPTDVGPFAF (Ac-WVTH(Cit)LAGLLSRSGGVVRKNFVPTDVGPFAF-NH2; 20 k Da PEG, Amine linkage)", "note": "[SEQ ID NO 28]", "IC50": 2.08}
{"binder": "WVTHXLAGLLSXSGGVVRKNFVPTDVGPFAF (Ac-WVTH(hR)LAGLLS(hR)SGGVVRKNFVPTDVGPFAF-NH2; 20 k Da PEG, Amine linkage)", "note": "[SEQ ID NO 26]", "IC50": 0.37}
{"binder": "WVTHXLAGLLSXSGGVVRKNFVPTDVGPFAF (Ac-WVTH(Cit)LAGLLS(Cit)SGGVVRKNFVPTDVGPFAF-NH2)", "note": "[SEQ ID NO 31]", "IC50": 1.8}
{"binder": "WVTHRLAGLLSXSGGVVRKNFVPTDVGPFAF (Ac-WVTHRLAGLLS(Cit)SGGVVRKNFVPTDVGPFAF-NH2)", "note": "[SEQ ID NO 29]", "IC50": 0.58}
{"binder": "WVTHXLAGLLSRSGGVVRKNFVPTDVGPFAF (Ac-WVTH(Cit)LAGLLSRSGGVVRKNFVPTDVGPFAF-NH2)", "note": "[SEQ ID NO 27]", "IC50": 0.57}
{"binder": "WVTHXLAGLLSXSGGVVRKNFVPTDVGPFAF (Ac-WVTH(Cit)LAGLLS(Cit)SGGVVRKNFVPTDVGPFAF-NH2; 20 k Da PEG, Amine linkage)", "note": "[SEQ ID NO 32]", "IC50": 3.74}
{"binder": "WVTHRLAGLLSXSGGVVRKNFVPTDVGPFAF (Ac-WVTHRLAGLLS(Cit)SGGVVRKNFVPTDVGPFAF-NH2; 20 k Da PEG, Amine linkage)", "note": "[SEQ ID NO 30]", "IC50": 0.96}
{"binder": "B6", "IC50": 1.33}
{"target": "T1, CGRP1 receptor (CRLR/RAMP1 complex) of …", "assay": "cell-based or functional assay", "remark": "another data set of the same source", "units": {"IC50": "nM"}}
{"binder": "B7", "IC50": 2.2}
{"binder": "B8", "IC50": 0.98}
{"binder": "B9", "IC50": 0.42}
{"binder": "B10", "IC50": 2.15}
{"binder": "B11", "IC50": 3.05}
{"binder": "B12", "IC50": 0.39}
{"binder": "B13", "IC50": 1.9}
{"target": "T1, CGRP1 receptor (CRLR/RAMP1 complex) of …", "assay": "cell-based or functional assay", "remark": "another data set of the same source", "units": {"fold loss of antagonist activity against SEQ ID NO:35": "fold", "fold loss of antagonist activity against SEQ ID NO:41": "fold", "fold change in potency against SEQ ID NO:36": "fold", "fold change in potency against SEQ ID NO:1": "fold", "fold loss of antagonist activity against SEQ ID NO:7": "fold", "fold loss of antagonist activity against SEQ ID NO:5": "fold", "fold loss of antagonist activity against SEQ ID NO:21 and 23": "fold", "fold loss of potency against SEQ ID NO:27 and 29": "fold"}}
{"binder": "B1", "fold loss of antagonist activity against SEQ ID NO:35": "> 12"}
{"binder": "B2", "fold loss of antagonist activity against SEQ ID NO:41": "> 32"}
{"binder": "B4", "fold change in potency against SEQ ID NO:36": "> 42"}
{"binder": "B9", "fold change in potency against SEQ ID NO:1": "~12", "fold loss of antagonist activity against SEQ ID NO:7": "~3"}
{"binder": "B10", "fold loss of antagonist activity against SEQ ID NO:5": "> 15"}
{"binder": "WVTHXLAGLLSXSGGVVRKNFVPTDVGPFAF (Ac-WVTH(hR)LAGLLS(hR)SGGVVRKNFVPTDVGPFAF-NH2)", "note": "[SEQ ID NO 25]", "fold loss of antagonist activity against SEQ ID NO:21 and 23": "~5"}
{"binder": "WVTHXLAGLLSXSGGVVRKNFVPTDVGPFAF (Ac-WVTH(Cit)LAGLLS(Cit)SGGVVRKNFVPTDVGPFAF-NH2)", "note": "[SEQ ID NO 31]", "fold loss of potency against SEQ ID NO:27 and 29": "~3"}
{"binder": "B11", "fold loss of antagonist activity against SEQ ID NO:5": "> 15"}
{"binder": "B12", "fold change in potency against SEQ ID NO:1": "~12", "fold loss of antagonist activity against SEQ ID NO:7": "~3"}
{"target": "T1, CGRP1 receptor (CRLR/RAMP1 complex) of …", "assay": "125I-hαCGRP competition, SK-N-MC membranes", "description": "CGRP₁ binding experiments. […] The plates were incubated at room temperature for 2 hour with shaking at 60 rpm, then the contents of each well were filtered over 0.5% polyethyleneimine (PEI)-treated (at least one hour) GF/C 96-well filter plates. The GF/C filter plates were washed 6 times with ice-cold 50 mM Tris, pH 7.5 and dried in an oven at 55 C for 1 hour. The bottoms of the GF/C plates were then sealed, and 40 μl Microscint™ 20 was added to each well, then the tops of the GF/C plates were sealed with TopSeal™-A, a press-on adhesive sealing film, and the GF/C plates were counted with TopCount NXT (Packard). The data were analyzed by using ActivityBase (IDBS) or Prizm (GraphPad) software.", "units": {"Ki": "nM"}}
{"binder": "WVTHXLAGLLSXSGGVVRKNFVPTDVGPFAF (Ac-WVTH(Cit)LAGLLS(Cit)SGGVVRKNFVPTDVGPFAF-NH2)", "note": "[SEQ ID NO 31]", "Ki": 0.46}
